Experimental data published in article PMC9352680, “A comprehensive thermodynamic model for RNA binding by the Saccharomyces cerevisiae Pumilio protein PUF4”.

T1: PUF4 RNA-binding domain (Saccharomyces cerevisiae, UniProt P25339 537-888)
T1 sequence: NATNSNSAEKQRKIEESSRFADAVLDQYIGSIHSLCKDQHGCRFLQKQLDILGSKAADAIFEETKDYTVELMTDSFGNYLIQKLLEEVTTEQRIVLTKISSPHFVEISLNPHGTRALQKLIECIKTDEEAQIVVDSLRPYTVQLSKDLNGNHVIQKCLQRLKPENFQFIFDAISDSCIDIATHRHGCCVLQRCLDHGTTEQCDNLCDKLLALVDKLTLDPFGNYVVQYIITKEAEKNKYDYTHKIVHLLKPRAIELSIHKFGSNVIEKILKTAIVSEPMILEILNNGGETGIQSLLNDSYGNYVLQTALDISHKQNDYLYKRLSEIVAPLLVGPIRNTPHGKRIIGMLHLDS

T2: PUF4 RNA-binding domain (Pumilio homology domain) (Saccharomyces cerevisiae, UniProt P25339 537-888)
T2 sequence: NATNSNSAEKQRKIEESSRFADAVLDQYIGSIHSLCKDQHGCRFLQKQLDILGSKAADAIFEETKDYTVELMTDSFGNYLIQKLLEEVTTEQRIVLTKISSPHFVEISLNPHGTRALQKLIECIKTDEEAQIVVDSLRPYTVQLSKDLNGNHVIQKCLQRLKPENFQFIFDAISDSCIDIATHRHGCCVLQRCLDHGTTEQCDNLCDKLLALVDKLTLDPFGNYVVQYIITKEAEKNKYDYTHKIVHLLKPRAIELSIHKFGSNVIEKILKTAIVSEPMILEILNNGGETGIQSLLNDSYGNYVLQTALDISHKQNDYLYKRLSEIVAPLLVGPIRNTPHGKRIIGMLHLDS


Assays:
[1] = biological target: T1, PUF4 RNA-binding domain; experiment: Mg; RNA-MaP; 20 mM Na-HEPES pH 7.4, 30 mM KOAc, 0.75 mM MgCl2, 0.1% Tween-20, 5% glycerol, 0.1 mg/mL BSA, 2 mM DTT; 25 C; 0.0125-409.6 nM protein; settings: tags: N-His6-TEV cleaved; C-SNAP kept, Cy3B-labelled; label: tethered on chip by stalled RNA polymerase
[2] = biological target: T2, PUF4 RNA-binding domain (Pumilio …); experiment: RNA-MaP; ddG 2.995; RNA-MaP: 20 mM Na-HEPES pH 7.4, 0.1% Tween-20, 5% glycerol, 0.1 mg/mL BSA, 2 mM DTT, low salt 0.75 mM MgCl2 + 30 mM KOAc (model data; high salt 2 mM MgCl2 + 100 mM KOAc), 25 C; settings: protein: recombinant; tags: C-terminal SNAP tag, Cy3B-labeled; N-terminal His tag removed with TEV; label: array RNA; single-stranded
[3] = biological target: T2, PUF4 RNA-binding domain (Pumilio …); experiment: RNA-MaP; ddG 3.526; RNA-MaP: 20 mM Na-HEPES pH 7.4, 0.1% Tween-20, 5% glycerol, 0.1 mg/mL BSA, 2 mM DTT, low salt 0.75 mM MgCl2 + 30 mM KOAc (model data; high salt 2 mM MgCl2 + 100 mM KOAc), 25 C; settings: protein: recombinant; tags: C-terminal SNAP tag, Cy3B-labeled; N-terminal His tag removed with TEV; label: array RNA; single-stranded

Binder	Kd [1]	also measured
ACAAACUCUAUAUCAACAAAC (ssRNA) [Ib_S3_P4E.1_K4.1_C4.1_H4.1_[G2C]_A4.1_F4.1_[T8C]_T4.1]	> 2300 nM	–
ACAAACUGCAUAUUCACAAAC (ssRNA) [Ib_S3_P4E.1_K4.1_C4.1_H4.1_[T3C]_A4.1_F4.1_[A9C]_T4.1]	> 2300 nM	–
ACAAACUGCUUAUAACAAAC (ssRNA) [Ib_S3_P3E.1_K3.1_C3.1_H3.1_[T3C]_[A4T]_A3.1_F3.1_T3.1]	> 2300 nM	–
UCUCUUUGUUUAUAUCUCUU (ssRNA) [S1a K3.1 A4T]	–	Kd [2]: -8.62 ± 0.651 kcal/mol (dG=RTlnKd)
ACAAACUAUAUUUAACAAAC (ssRNA) [Ib_S3_P3E.1_K3.1_C3.1_H3.1_[G2A]_A3.1_[A6T]_F3.1_T3.1]	> 2300 nM	–
ACAAACUGUCUAGAACAAAC (ssRNA) [Ib_S3_P3E.1_K3.1_C3.1_H3.1_[A4C]_A3.1_F3.1_[T7G]_T3.1]	> 2300 nM	–
ACAAACUGCAUAAAACAAAC (ssRNA) [Ib_S3_P3E.1_K3.1_C3.1_H3.1_[T3C]_A3.1_F3.1_[T7A]_T3.1]	> 2300 nM	–
ACAAACUGCAGAUAACAAAC (ssRNA) [Ib_S3_P3E.1_K3.1_C3.1_H3.1_[T3C]_A3.1_[T5G]_F3.1_T3.1]	> 2300 nM	–
ACAAACUUUAUAUUACAAAC (ssRNA) [Ib_S3_P3E.1_K3.1_C3.1_H3.1_[G2T]_A3.1_F3.1_[A8T]_T3.1]	704 nM	–
ACAAACUGCAUAUUUACAAAC (ssRNA) [Ib_S3_P4E.1_K4.1_C4.1_H4.1_[T3C]_A4.1_F4.1_[A9T]_T4.1]	839 nM	–
ACAAACCUUAUAUAACAAAC (ssRNA) [Ib_S3_P3E.1_K3.1_C3.1_H3.1_[T1C]_[G2T]_A3.1_F3.1_T3.1]	> 2300 nM	–
ACAAACCGUAUAUUACAAAC (ssRNA) [Ib_S3_P3E.1_K3.1_C3.1_H3.1_[T1C]_A3.1_F3.1_[A8T]_T3.1]	78.5 nM	–
ACAAACAGUAUUUAACAAAC (ssRNA) [Ib_S3_P3E.1_K3.1_C3.1_H3.1_[T1A]_A3.1_[A6T]_F3.1_T3.1]	> 2300 nM	–
ACAAACUGGAUUUAACAAAC (ssRNA) [Ib_S3_P3E.1_K3.1_C3.1_H3.1_[T3G]_A3.1_[A6T]_F3.1_T3.1]	> 2300 nM	–
ACAAACAGUAUAUAAACAAAC (ssRNA) [Ib_S3_P4E.1_K4.1_C4.1_H4.1_[T1A]_A4.1_F4.1_[T8A]_T4.1]	> 2300 nM	–
ACAAACAGUACAUAACAAAC (ssRNA) [Ib_S3_P3E.1_K3.1_C3.1_H3.1_[T1A]_A3.1_[T5C]_F3.1_T3.1]	> 2300 nM	–
ACAAACUCUACAUAACAAAC (ssRNA) [Ib_S3_P3E.1_K3.1_C3.1_H3.1_[G2C]_A3.1_[T5C]_F3.1_T3.1]	> 2300 nM	–
ACAAACUAUAUAUUCACAAAC (ssRNA) [Ib_S3_P4E.1_K4.1_C4.1_H4.1_[G2A]_A4.1_F4.1_[A9C]_T4.1]	1480 nM	–
ACAAACUCUAUAUUACAAAC (ssRNA) [Ib_S3_P3E.1_K3.1_C3.1_H3.1_[G2C]_A3.1_F3.1_[A8T]_T3.1]	> 2300 nM	–
UCUCUUUGUCUAUAUCUCUU (ssRNA) [S1a K3.1 A4C]	–	Kd [3]: -8.09 ± 0.737 kcal/mol (dG=RTlnKd)
ACAAACUGUCUAAAACAAAC (ssRNA) [Ib_S3_P3E.1_K3.1_C3.1_H3.1_[A4C]_A3.1_F3.1_[T7A]_T3.1]	> 2300 nM	–
ACAAACUGCAUAUGACAAAC (ssRNA) [Ib_S3_P3E.1_K3.1_C3.1_H3.1_[T3C]_A3.1_F3.1_[A8G]_T3.1]	> 2300 nM	–
ACAAACCGUAAAUAACAAAC (ssRNA) [Ib_S3_P3E.1_K3.1_C3.1_H3.1_[T1C]_A3.1_[T5A]_F3.1_T3.1]	> 2300 nM	–
ACAAACACUAUAUUAACAAAC (ssRNA) [Ib_S3_P4E.1_K4.1_C4.1_H4.1_[T1A]_[G2C]_A4.1_F4.1_T4.1]	> 2300 nM	–
ACAAACAGUAUAAAACAAAC (ssRNA) [Ib_S3_P3E.1_K3.1_C3.1_H3.1_[T1A]_A3.1_F3.1_[T7A]_T3.1]	> 2300 nM	–
ACAAACUGAGUAUAACAAAC (ssRNA) [Ib_S3_P3E.1_K3.1_C3.1_H3.1_[T3A]_[A4G]_A3.1_F3.1_T3.1]	> 2300 nM	–
ACAAACCGUCUAUAACAAAC (ssRNA) [Ib_S3_P3E.1_K3.1_C3.1_H3.1_[T1C]_[A4C]_A3.1_F3.1_T3.1]	> 2300 nM	–
ACAAACCGUAUAGAACAAAC (ssRNA) [Ib_S3_P3E.1_K3.1_C3.1_H3.1_[T1C]_A3.1_F3.1_[T7G]_T3.1]	> 2300 nM	–
